The chains are these.
B1: RORa: RAR-related Orphan Receptor α (NR1F1), cDNA driver (protein, UniProt P35398 1-523, looked up)
Nuclear receptor ROR-alpha: MESAPAAPDPAASEPGSSGADAAAGSRETPLNQESARKSEPPAPVRRQSYSSTSRGISVTKKTHTSQIEIIPCKICGDKSSGIHYGVITCEGCKGFFRRSQQSNATYSCPRQKNCLIDRTSRNRCQHCRLQKCLAVGMSRDAVKFGRMSKKQRDSLYAEVQKHRMQQQQRDHQQQPGEAEPLTPTYNISANGLTELHDDLSNYIDGHTPEGSKADSAVSSFYLDIQPSPDQSGLDINGIKPEPICDYTPASGFFPYCSFTNGETSPTVSMAELEHLAQNISKSHLETCQYLREELQQITWQTFLQEEIENYQNKQREVMWQLCAIKITEAIQYVVEFAKRIDGFMELCQNDQIVLLKAGSLEVVFIRMCRAFDSQNNTVYFDGKYASPDVFKSLGCEDFISFVFEFGKSLCSMHLTEDEIALFSAFVLMSADRSWLQEKVKIEKLQQKIQLALQHVLQKNHREDGILTKLICKVSTLRALCGRHTEKLMAFKAIYPDIVRLHFPPLYKELFTSEFEPAMQIDG
B2: RARa: Retinoic acid receptor α (NR1B1), nuclear hormone receptor cDNA driver (protein, UniProt P10276 1-462, looked up)
Retinoic acid receptor alpha: MASNSSSCPTPGGGHLNGYPVPPYAFFFPPMLGGLSPPGALTTLQHQLPVSGYSTPSPATIETQSSSSEEIVPSPPSPPPLPRIYKPCFVCQDKSSGYHYGVSACEGCKGFFRRSIQKNMVYTCHRDKNCIINKVTRNRCQYCRLQKCFEVGMSKESVRNDRNKKKKEVPKPECSESYTLTPEVGELIEKVRKAHQETFPALCQLGKYTTNNSSEQRVSLDIDLWDKFSELSTKCIIKTVEFAKQLPGFTTLTIADQITLLKAACLDILILRICTRYTPEQDTMTFSDGLTLNRTQMHNAGFGPLTDLVFAFANQLLPLEMDDAETGLLSAICLICGDRQDLEQPDRVDMLQEPLLEALKVYVRKRRPSRPHMFPKMLMKITDLRSISAKGAERVITLKMEIPGSMPPLIQEMLENSEGLDTLSGQPGGGGRDGGGLAPPPGSCSPSLSPSSNRSSPATHSP
B3: RVRa: Rev-Erb α (NR1D1), cDNA driver (protein, UniProt P20393 1-614, looked up)
Nuclear receptor subfamily 1 …: MTTLDSNNNTGGVITYIGSSGSSPSRTSPESLYSDNSNGSFQSLTQGCPTYFPPSPTGSLTQDPARSFGSIPPSLSDDGSPSSSSSSSSSSSSFYNGSPPGSLQVAMEDSSRVSPSKSTSNITKLNGMVLLCKVCGDVASGFHYGVHACEGCKGFFRRSIQQNIQYKRCLKNENCSIVRINRNRCQQCRFKKCLSVGMSRDAVRFGRIPKREKQRMLAEMQSAMNLANNQLSSQCPLETSPTQHPTPGPMGPSPPPAPVPSPLVGFSQFPQQLTPPRSPSPEPTVEDVISQVARAHREIFTYAHDKLGSSPGNFNANHASGSPPATTPHRWENQGCPPAPNDNNTLAAQRHNEALNGLRQAPSSYPPTWPPGPAHHSCHQSNSNGHRLCPTHVYAAPEGKAPANSPRQGNSKNVLLACPMNMYPHGRSGRTVQEIWEDFSMSFTPAVREVVEFAKHIPGFRDLSQHDQVTLLKAGTFEVLMVRFASLFNVKDQTVMFLSRTTYSLQELGAMGMGDLLSAMFDFSEKLNSLALTEEELGLFTAVVLVSADRSGMENSASVEQLQETLLRALRALVLKNRPLETSRFTKLLLKLPDLRTLNNMHSEKLLSFRVDAQ
B4: RVRb: Rev-Erb β (NR1D2, alternative name RVR), cDNA driver (protein, UniProt Q14995 1-579, looked up)
Nuclear receptor subfamily 1 …: MEVNAGGVIAYISSSSSASSPASCHSEGSENSFQSSSSSVPSSPNSSNSDTNGNPKNGDLANIEGILKNDRIDCSMKTSKSSAPGMTKSHSGVTKFSGMVLLCKVCGDVASGFHYGVHACEGCKGFFRRSIQQNIQYKKCLKNENCSIMRMNRNRCQQCRFKKCLSVGMSRDAVRFGRIPKREKQRMLIEMQSAMKTMMNSQFSGHLQNDTLVEHHEQTALPAQEQLRPKPQLEQENIKSSSPPSSDFAKEEVIGMVTRAHKDTFMYNQEQQENSAESMQPQRGERIPKNMEQYNLNHDHCGNGLSSHFPCSESQQHLNGQFKGRNIMHYPNGHAICIANGHCMNFSNAYTQRVCDRVPIDGFSQNENKNSYLCNTGGRMHLVCPMSKSPYVDPHKSGHEIWEEFSMSFTPAVKEVVEFAKRIPGFRDLSQHDQVNLLKAGTFEVLMVRFASLFDAKERTVTFLSGKKYSVDDLHSMGAGDLLNSMFEFSEKLNALQLSDEEMSLFTAVVLVSADRSGIENVNSVEALQETLIRALRTLIMKNHPNEASIFTKLLLKLPDLRSLNNMHSEELLAFKVHP
B5: RORg: RAR-related Orphan Receptor γ (NR1F3), cDNA driver (protein, UniProt P51449 1-518, looked up)
Nuclear receptor ROR-gamma: MDRAPQRQHRASRELLAAKKTHTSQIEVIPCKICGDKSSGIHYGVITCEGCKGFFRRSQRCNAAYSCTRQQNCPIDRTSRNRCQHCRLQKCLALGMSRDAVKFGRMSKKQRDSLHAEVQKQLQQRQQQQQEPVVKTPPAGAQGADTLTYTLGLPDGQLPLGSSPDLPEASACPPGLLKASGSGPSYSNNLAKAGLNGASCHLEYSPERGKAEGRESFYSTGSQLTPDRCGLRFEEHRHPGLGELGQGPDSYGSPSFRSTPEAPYASLTEIEHLVQSVCKSYRETCQLRLEDLLRQRSNIFSREEVTGYQRKSMWEMWERCAHHLTEAIQYVVEFAKRLSGFMELCQNDQIVLLKAGAMEVVLVRMCRAYNADNRTVFFEGKYGGMELFRALGCSELISSIFDFSHSLSALHFSEDEIALYTALVLINAHRPGLQEKRKVEQLQYNLELAFHHHLCKTHRQSILAKLPPKGKLRSLCSQHVERLQIFQHLHPIVVQAAFPPLYKELFSTETESPVGLSK

These results are taken from patent publication US20110263454A1, “Methods of Identifying Functional Characteristics of Promoters, Transcription Modifying Proteins and Transcription Modulating Agents” (Salk Institute for Biological Studies, priority 2008, published 2011).

The first assay concerns hMyoD promoter. The assay is described as follows: NHR-promoter luciferase screen, hMyoD promoter. In kind it is cell-based, human. As to conditions: MyoD promoter reporter; co-transfected HR, without or with its ligand. How it is done: (§1) The use, feasibility, and reproducibility of the functional NHR-promoter screen in a 48-well format have been tested validated. Briefly, there were co-expressed 50 ng of each NHR/NHR homodimer or NHR/RXR heterodimer with 100 ng promoter/luciferase construct and 50 ng of LacZ (as a control for transfection efficiency) in CV-1 cells using Fugene HD (Roche) as a transfection reagent (alternatively or additionally, a CMV-YFP construct can be used as a transfection control). Each of the nuclear hormone receptors that were used in these experiments was cloned into a pcDNA3.1 vector and comprised a C-terminally linked V5H6 tag. Twenty-four hours after transfection, appropriate ligands were added, where applicable, (see Table 5 for various ligands and concentrations and after 48 hrs, samples were assayed for luciferase and LacZ activity. To measure for luciferase activity 15 ul of sample was added to 30 ul of luciferase buffer (20 mM tricine, 1.07 mM MgCarbonate, 2.67 mM MgSulfate, 0.1 mM Naz-EDTA, 5 mM DTT, 5 mM ATP, 0.15 mg/ml CoA, 0.5 mM Luciferin), mixed briefly, and run in a Perkin Elmer Victor 5 luminometer. Thus, the functional NHR-promoter screen was used to observe the transcriptional activity of 29 promoters from various physiological pathways including inflammation, lipid and sugar metabolism, cholesterol transport, xenobiotic metabolism, and circadian rhythm.
(§2) The promoters that facilitate transcription of the indicated gene products that were tested using the protocols described herein are listed in the first row of the table. The nuclear hormone receptors and, where applicable, ligands that were assayed for their transcriptional effects on the promoters are listed in the first column of the table. The data represent the luciferase activity of each sample normalized to both the lacZ activity of that sample and to a control, e.g., no NHR or ligand, as customary in the art. As described previously, these normalizations allow the transcriptional activity of each reporter cell to be compared to other samples.
(§3) Tables 7-40 show the transcriptional effects of the hormone receptors, and, where applicable, ligands (orphan receptors are screened without ligand), on each individual promoter. […] The control data of each table are shown in their last rows.
On to B1, for which the “Luc. act., normalized to lacZ” value came to 47.3.
Consider B2, for which the “Luc. act., normalized to lacZ” value was 99.3.
In the case of B3, the “Luc. act., normalized to lacZ” value is listed as 75.0.
The same measure, in the same setting: the result for B4 reads 80.9; that for B5, 86.5.

Staying with this assay, now noted: MyoD promoter reporter; co-transfected HR, without or with its ligand; relative to control.
Consider B1, for which the “Normalized Luc. act., normalized to control” value is listed as 0.7.
Still for that read-out and setting: the same measure for B2: 1.6; for B3: 1.2.
The same measure, in the same setting: the same measure for B4: 1.3.
On the same count and under the same terms, the same measure for B5: 1.4.

The same assay, now with this note: hMyoD promoter-luciferase, CV-1 cells, NHR +/- ligand, control = 1.00.
Regarding B1, the “luciferase activity normalized to lacZ activity and to a control, hMyoD” value stood at 0.75.
On the same count and under the same terms, the result for B2 reads 1.57; that for B3, 1.18.
Same read-out and setting: the result for B4 reads 1.28; that for B5, 1.36.

The subject of a further assay is hMDR1 promoter. The assay is described as follows: NHR-promoter luciferase screen, hMDR1 promoter. To be noted: MDR1 promoter; HR/ligand component. The class given is cell-based, human. How it is done: as §1, §2, §3
As for B1, the “Luc. act., normalized to lacZ” value turned out to be 0.1 and the “Normalized Luc. act., normalized to control” value stood at 0.3.
As for B2, the “Luc. act., normalized to lacZ” value is on record as 0.2 and the “Normalized Luc. act., normalized to control” value is reported as 0.7.
Taken in the same sequence, the figures for B3 were 0.2 and 0.6.
Consider B4, for which the “Luc. act., normalized to lacZ” value amounted to 0.3 and the “Normalized Luc. act., normalized to control” value was 0.9.
Taken in the same sequence, the figures for B5 were 0.2 and 0.5.

Still in this assay, the particulars now being: transcription factor +/- ligand; control = 1.00.
B1: the “hMDR1 promoter reporter activity” value is recorded as 0.32.
B2: the “hMDR1 promoter reporter activity” value turned out to be 0.67.
Still for that read-out and setting: the same measure for B3: 0.64; for B4: 0.94.
Still for that read-out and setting: the same measure for B5: 0.54.

For another assay, the system named is SREBP1c promoter. The assay is described as follows: NHR-promoter luciferase screen, SREBP1c promoter. In kind it is cell-based, mouse. As to conditions: SREBP1c promoter; HR component without or with ligand. How it is done: as §1, §2, §3
Regarding B1, the “Luc. act., normalized to lacZ” value was 410.8 and the “Normalized Luc. act., normalized to control” value is recorded as 1.3.
Taken in the same sequence, the figures for B2 were 854.2 and 2.7.
Taken in the same sequence, the figures for B3 were 574.4 and 1.8.
Taken in the same sequence, the figures for B4 were 721.7 and 2.2.
As for B5, the “Luc. act., normalized to lacZ” value stood at 644.8 and the “Normalized Luc. act., normalized to control” value was found to be 2.0.

The assay is the same for the next values; noted with them: transcription factor +/- ligand; control = 1.00.
Consider B1, for which the “mSREBP1-c promoter reporter activity” value came to 1.28.
On the same count and under the same terms, the same measure for B2: 2.65.
Same read-out and setting: the same measure for B3: 1.78.
Still for that read-out and setting: the same measure for B4: 2.24; for B5: 2.00.
